Experimental data taken from patent publication US20100216721A1.

B1: HNG-105 (peptide)
peptide: RINNIPWSEAMM
modifications: not checked
B2: HNG-156 (peptide)
peptide: RINNIPWSEAMM
modifications: not checked

Columns and labels:
[1] = molecular target: HIV-1 92UG037-08 gp120 (HIV-1 strain 92UG037-08); assay: SPR (Biacore 3000); peptide over immobilized gp120
[2] = molecular target: HIV-1 SF162 gp120 (HIV-1 strain SF162), P19550; assay: SPR (Biacore 3000); peptide over immobilized gp120

| Binder | Kd [1] [nM] | Kd [2] [nM] |
| --- | --- | --- |
| B1 | 1840 | 70.5 |
| B2 | 16.3 | 9 |
